Like-named read-outs stand apart in the source and are kept apart here.
Legend:
[1] = biological target: the molecule itself
[2] = biological target: the molecule itself; remark: listed apart in the source
[3] = biological target: the molecule itself; remark: listed apart in the source

B1: Shigella flexneri MxiH protein fused to the lamprey VLR-B antibody C-terminal domain SEQ ID NO: 2, expressed in E. coli (other)
chain: MSVTVPNDDWTLSSLSETFDDGTQTLQGELTLALDKLAKNPSNPQLLAEYQSKLSEYTLYRNAQSNTVKVIKDVDAAIIQNFRNCTSIQERKNDGGDCGKPACTTLLNCANFLSCLCSTCALCRKR
notes: The expected monomer weight is 13.86 kDa; Found in the insoluble fraction; also called MxiH-lamprey
B1: binds [1].

B2: Shigella flexneri IpaD protein fused to the lamprey VLR-B antibody C-terminal domain SEQ ID NO: 2, expressed in E. coli (other)
chain: MNITTLTNSISTSSFSPNNTNGSSTETVNSDIKTTTSSHPVSSLTMLNDTLHNIRTTNQALKKELSQKTLTKTSLEEIALHSSQISMDVNKSAQLLDILSRHEYPINKDARELLHSAPKEAELDGDQMISHRELWAKIANSINDINEQYLKVYEHAVSSYTQMYQDFSAVLSSLAGWISPGGNDGNSVKLQVNSLKKALEELKEKYKDKPLYPANNTVSQEQANKWLTELGGTIGKVSQKNGGYVVSINMTPIDNMLKSLDNLGGNGEVVLDNAKYQAWNAGFSAEDETMKNNLQTLVQKYSNANSIFDNLVKVLSSTISSCTDTDKLFLHFNCTSIQERKNDGGDCGKPACTTLLNCANFLSCLCSTCALCRKR
notes: also called IpaD-lamprey
B2: binds [2].

B3: Shigella flexneri MxiH protein fused to the lamprey VLR-B antibody C-terminal domain SEQ ID NO: 2, with GGSLE linker and 6xHis tag (other)
chain: MSVTVPNDDWTLSSLSETFDDGTQTLQGELTLALDKLAKNPSNPQLLAEYQSKLSEYTLYRNAQSNTVKVIKDVDAAIIQNFRNCTSIQERKNDGGDCGKPACTTLLNCANFLSCLCSTCALCRKRGGSLEHHHHHH
notes: also called MxiH-lamprey-His
B3: binds [3].

Reference: US20190016760A1 (Sanofi, published 2019)
